Patent US5625031

Key:
[1] = biological target: p34^cdc2 cell cycle regulatory kinase (Homo sapiens (Human)) (UniProt P06493)
[2] = biological target: p34^cdc2 cell cycle regulatory kinase (Homo sapiens (Human)) (UniProt P06493); test: Western blot densitometry of p34^cdc2 bound to p107 30mer-sepharose against immunoprecipitated p34^cdc2
[3] = biological target: p34^cdc2 cell cycle regulatory kinase (Homo sapiens (Human)) (UniProt P06493); test: IC50 column of Table 1 (ELISA based competition, competitor plate-bound p107 30mer)

Substance	histone H1 kinase specific activity of p34^cdc2 bound to p107 30mer-sepharose [1] [%]	amount of p34^cdc2 associated, relative to that within the immune complexes [2] [times]	IC50 [3] [µM]
p107 30 amino acid peptide (residues 692-721 of p107, encompassing alpha-helix II)	1.4	50	–
p107 NC5mer pentapeptide (CAFYI)	–	–	13
